Patent US20120270787A1 (GOVERNORS OF THE UNIVERSITY OF ALBERTA, published 2012)
Where no end group is shown, it is not given here.

T1: calcitonin receptor (human, UniProt P30988 25-474)
T1 sequence (looked up): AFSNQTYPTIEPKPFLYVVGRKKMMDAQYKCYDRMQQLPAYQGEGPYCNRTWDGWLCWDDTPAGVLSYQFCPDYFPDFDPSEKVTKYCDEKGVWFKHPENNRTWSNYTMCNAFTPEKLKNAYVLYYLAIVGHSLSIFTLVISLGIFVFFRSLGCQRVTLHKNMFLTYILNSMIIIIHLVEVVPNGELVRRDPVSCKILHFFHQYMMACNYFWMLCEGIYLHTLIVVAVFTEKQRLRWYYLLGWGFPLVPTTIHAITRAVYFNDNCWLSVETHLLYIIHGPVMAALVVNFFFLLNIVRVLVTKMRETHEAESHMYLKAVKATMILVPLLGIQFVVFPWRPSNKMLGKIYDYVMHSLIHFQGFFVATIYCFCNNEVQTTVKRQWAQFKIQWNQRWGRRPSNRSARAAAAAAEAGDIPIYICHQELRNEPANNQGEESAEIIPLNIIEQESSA

B1: sCT-SMCC (peptide)
peptide: CSNLSTCVLGKLSQELHKLQTYPRTNTGSGTP
modifications: ends and bridges not checked; also: mixture of mono-, di- and tri-substituted: SMCC group in amide bond on Lys11, Lys18 and/or N-terminus
B2: sCT-BP (peptide)
peptide: B1 peptide
modifications: ends and bridges not checked; also: mixture: SMCC linker carrying thiol bisphosphonate on Lys11, Lys18 and/or N-terminus (2-3 SMCC, 1-3 BP)

Target: T1, calcitonin receptor
Experiment: cell-based or functional assay

Binder	intracellular cAMP in T47D cells, % of native sCT activity, at 50 nM	intracellular cAMP in T47D cells, % of native sCT activity, at 100 nM	intracellular cAMP in T47D cells, % of native sCT activity, at 10 mM (so in the source)
B1	98%	115%	94.3%
B2	102%	99.8%	92.8%
